Test [1] addresses HIV gp120 Bal (HIV). Nature of the test: single-point ELISA. (In an ELISA, binding on a coated surface is turned into a signal by an enzyme label.)
Test [2] has as its target HIV gp120 CAAN (HIV). The test is described as follows: single-point ELISA. Note: test concentration or dose not given here.

Numbering of substitutions follows the chain as printed.

B1: 1.12.17-1 (antibody, human IgG1, kappa, V domains shown)
VH: QVQLLQSGAAVTKPGASVRVSCEASGYNIRDYFIHWVRQAPGQGLQWVGWINPKTGQPNNPRQFQGRVSLTRHASWDFDTFSFYMDLKALRSDDTAVYFCARQRSDYWDFDVWGSGTQVTVSS
VL: DIQMTQSPSSLSASVGDTVTITCQANGYLNWYQQRRGKAPKLLIYDGSKLERGVPSRFSGRRWGQEYNLTINNLQPEDIATYFCQVYEFFGPGTRLDLKR
As to B1, the “ELISA (A450)” value was found to be 0.9 A450 in test [1] and 0.84 A450 in test [2].

B2: 1.13.17-1 (antibody, human IgG1, kappa, V domains shown)
VH: B1 VH with I34M
VL: B1 VL
As to B2, the “ELISA (A450)” value in test [1] stood at 1.02 A450; in test [2], 0.78 A450.

B3: 1.14.17-1 (antibody, human IgG1, kappa, V domains shown)
VH: B1 VH with I34M, F83A
VL: B1 VL
Take B3: the “ELISA (A450)” value in test [1] was determined as 0.89 A450; in test [2], 0.43 A450.

B4: 1.1.12-1 (antibody, human IgG1, kappa)
heavy: QVQLLQSGAAVTKPGASVRVSCEASGYNIRDYFIHWWRQAPGQGLQWVGWINPKTGQPNNPRQFQGRVSLTRHASWDFDTFSFYMDLKALRSDDTAVYFCARQRSDYWDFDVWGSGTQVTVSSASTKGPSVFPLAPSSKSTSGGTAALGCLVKDYFPEPVTVSWNSGALTSGVHTFPAVLQSSGLYSLSSVVTVPSSSLGTQTYICNVNHKPSNTKVDKKVEPKSCDKTHTCPPCPAPELLAGPDVFLFPPKPKDTLMISRTPEVTCVVVDVSHEDPEVKFNWYVDGVEVHNAKTKPREEQYNSTYRVVSVLTVLHQDWLNGKEYKCKVSNKALPLPEEKTISKAKGQPREPQVYTLPPSREEMTKNQVSLTCLVKGFYPSDIAVEWESNGQPENNYKTTPPVLDSDGSFFLYSKLTVDKSRWQQGNVFSCSVLHEALHSHYTQKSLSLSPGK
light: DIQMTQSPSSLSASVGDTVTITCQANGYLNWYQQRRGKAPKLLIYDGSKLERGVPSRFSGRRWGQEYNLTISSLQPEDIATYFCQVYEFVVPGTRLDLKRTVAAPSVFIFPPSDEQLKSGTASVVCLLNNFYPREAKVQWKVDNALQSGNSQESVTEQDSKDSTYSLSSTLTLSKADYEKHKVYACEVTHQGLSSPVTKSFNRGEC
In the case of B4, the “ELISA (A450)” value was 1.05 A450 in test [1] and 1.02 A450 in test [2].

B5: 1.1.28-1 (antibody, human IgG1, kappa)
heavy: B4 heavy
light: B4 light with S72N, S73N, R95N, L96V, L98I
On to B5, for which the entries for the “ELISA (A450)” value in test [1] and in test [2] were 0.98 A450 and 0.93 A450, respectively.

B6: 1.36.1-1 (antibody, human IgG1, kappa)
heavy: QVQLVQSGAEVKKPGASVRVSCKASGYNIRDYFMHWWRQAPGQGLQWVGWINPKTGQPNNPRQFQGRVTMTRHASWDFDTFSAYMDLSRLRSDDTATYFCARQRTDYWDFDVWGQGTMVTVSSASTKGPSVFPLAPSSKSTSGGTAALGCLVKDYFPEPVTVSWNSGALTSGVHTFPAVLQSSGLYSLSSVVTVPSSSLGTQTYICNVNHKPSNTKVDKKVEPKSCDKTHTCPPCPAPELLAGPDVFLFPPKPKDTLMISRTPEVTCVVVDVSHEDPEVKFNWYVDGVEVHNAKTKPREEQYNSTYRVVSVLTVLHQDWLNGKEYKCKVSNKALPLPEEKTISKAKGQPREPQVYTLPPSREEMTKNQVSLTCLVKGFYPSDIAVEWESNGQPENNYKTTPPVLDSDGSFFLYSKLTVDKSRWQQGNVFSCSVLHEALHSHYTQKSLSLSPGK
light: B4 light with S72N, S73N
For B6, the “ELISA (A450)” value came to 1.13 A450 in test [1] and 0.75 A450 in test [2].

B7: 1.33.1-1 (antibody, human IgG1, kappa)
heavy: B4 heavy with L5V, A10E, T12K, E23K, S69T, V97T
light: B4 light with S72N, S73N
As to B7, the figures for the “ELISA (A450)” value in test [1] and in test [2] were 0.88 A450 and 0.98 A450, respectively.

B8: 1.12.15-1 (antibody, human IgG1, kappa)
heavy: B4 heavy with W37V
light: B4 light with S72N, S73N, V90F
Consider B8, for which the figures for the “ELISA (A450)” value in test [1] and in test [2] were 0.69 A450 and 0.63 A450, respectively.

B9: 1.1.29-1 (antibody, human IgG1, kappa)
heavy: B4 heavy
light: B4 light with S72N, S73N, V91G, R95N, L96V, L98I
Consider B9, for which the “ELISA (A450)” value came out at 0.91 A450 in test [1] and 1.01 A450 in test [2].

B10: 1.1.26-1 (antibody, human IgG1, kappa)
heavy: B4 heavy
light: B4 light with S72N, S73N, L98I
On to B10, for which the “ELISA (A450)” value in test [1] amounted to 0.96 A450; in test [2], 1.07 A450.

B11: 1.1.23-1 (antibody, human IgG1, kappa)
heavy: B4 heavy
light: B4 light with S72N, S73N, V91T, R95N
With B11, the “ELISA (A450)” value in test [1] came to 0.9 A450; in test [2], 0.95 A450.

B12: 1.32.1-1 (antibody, human IgG1, kappa)
heavy: B4 heavy with L5V, A10E, S105T
light: B4 light with S72N, S73N
In the case of B12, the entries for the “ELISA (A450)” value in test [1] and in test [2] were 0.93 A450 and 0.83 A450, respectively.

B13: 1.1.21-1 (antibody, human IgG1, kappa)
heavy: B4 heavy
light: B4 light with S72N, S73N, V91G, R95N
As to B13, the entries for the “ELISA (A450)” value in test [1] and in test [2] were 0.98 A450 and 0.99 A450, respectively.

B14: 1.1.30-1 (antibody, human IgG1, kappa)
heavy: B4 heavy
light: B4 light with S72N, S73N, V91T, R95N, L96V, L98I
Regarding B14, the “ELISA (A450)” value was found to be 0.9 A450 in test [1] and 0.86 A450 in test [2].

B15: 1.1.19-1 (antibody, human IgG1, kappa)
heavy: B4 heavy
light: B4 light with S72N, S73N, V91T
B15: the “ELISA (A450)” value in test [1] was 1.03 A450; in test [2], 1.05 A450.

B16: 1.1.20-1 (antibody, human IgG1, kappa)
heavy: B4 heavy
light: B4 light with S72N, S73N, R95N
With B16, the “ELISA (A450)” value in test [1] came to 0.94 A450; in test [2], 0.95 A450.

B17: 1.1.16-1 (antibody, human IgG1, kappa)
heavy: B4 heavy
light: B4 light with S72N, S73N, V91G
Take B17: the “ELISA (A450)” value in test [1] was 1.06 A450; in test [2], 0.99 A450.

B18: 1.1.15-1 (antibody, human IgG1, kappa)
heavy: B4 heavy
light: B4 light with S72N, S73N, V90F
Consider B18, for which the entries for the “ELISA (A450)” value in test [1] and in test [2] were 0.93 A450 and 0.79 A450, respectively.

B19: 1.31.1-1 (antibody, human IgG1, kappa)
heavy: B4 heavy with L5V, A10E, V97T
light: B4 light with S72N, S73N
For B19, the “ELISA (A450)” value was determined as 0.82 A450 in test [1] and 0.92 A450 in test [2].

B20: 1.35.1-1 (antibody, human IgG1, kappa)
heavy: B6 heavy with A83F
light: B4 light with S72N, S73N
With B20, the “ELISA (A450)” value came to 0.84 A450 in test [1] and 0.87 A450 in test [2].

B21: 1.1.18-1 (antibody, human IgG1, kappa)
heavy: B4 heavy
light: B4 light with S72N, S73N, V91S
B21: the “ELISA (A450)” value in test [1] and in test [2] was 0.92 A450 in each case.

B22: 1.1.17-1 (antibody, human IgG1, kappa)
heavy: B4 heavy
light: B4 light with S72N, S73N, V90F, V91G
Consider B22, for which the “ELISA (A450)” value in test [1] worked out at 1.02 A450; in test [2], 0.9 A450.

B23: 1.34.1-1 (antibody, human IgG1, kappa)
heavy: B4 heavy with L5V, A10E, T12K, E23K, S69T, S105T
light: B4 light with S72N, S73N
As for B23, the “ELISA (A450)” value in test [1] was determined as 0.83 A450; in test [2], 0.9 A450.

B24: 1.1.22-1 (antibody, human IgG1, kappa)
heavy: B4 heavy
light: B4 light with S72N, S73N, V91S, R95N
On to B24, for which the “ELISA (A450)” value in test [1] worked out at 0.88 A450; in test [2], 1.02 A450.

B25: 1.13.15-1 (antibody, human IgG1, kappa)
heavy: B4 heavy with I34M, W37V
light: B4 light with S72N, S73N, V90F
As for B25, the “ELISA (A450)” value amounted to 0.7 A450 in test [1] and 0.6 A450 in test [2].

B26: 1.1.25-1 (antibody, human IgG1, kappa)
heavy: B4 heavy
light: B4 light with S72N, S73N, R95N, L96V
As for B26, the “ELISA (A450)” value in test [1] is 0.9 A450; in test [2], 0.92 A450.

B27: 1.1.13-1 (antibody, human IgG1, kappa)
heavy: B4 heavy
light: B4 light with R61S, N68T
Take B27: the figures for the “ELISA (A450)” value in test [1] and in test [2] were 0.94 A450 and 1.11 A450, respectively.

B28: 1.1.27-1 (antibody, human IgG1, kappa)
heavy: B4 heavy
light: B4 light with S72N, S73N, L96V, L98I
Regarding B28, the “ELISA (A450)” value is 0.97 A450 in test [1] and 0.99 A450 in test [2].

B29: 1.1.24-1 (antibody, human IgG1, kappa)
heavy: B4 heavy
light: B4 light with S72N, S73N, L96V
In the case of B29, the “ELISA (A450)” value was determined as 0.88 A450 in test [1] and 0.98 A450 in test [2].

(Values after US20220089698A1 (published 2022).)
